# Measurements reported in patent publication US20150344570A1 (published 2015).
# B1: GpH7-A5/GpH7-B3 variant P271_12R/GpL16-k0 (antibody, human IgG1, kappa)
# heavy 1: not shown
# heavy 2: not shown
# light: DIVMTQSPLSLPVTPGEPASISCQASESLVHSNRNTYLHWYLQKPGQSPQLLIYKVSNRFSGVPDRFSGSGSGTDFTLKISRVEAEDVGVYYCSQNTHVPPTFGQGTKVEIERTVAAPSVFIFPPSDEQLKSGTASVVCLLNNFYPREAKVQWKVDNALQSGNSQESVTEQDSKDSTYSLSSTLTLSKADYEKHKVYACEVTHQGLSSPVTKSFNRGEC
# notes: heterodimerized IgG1, mutation in one H chain; also called He Ab
# B2: GpH7-A5/GpH7-B3 variant P271_13S/GpL16-k0 (antibody, human IgG1, kappa)
# heavy 1: not shown
# heavy 2: not shown
# light: B1 light
# notes: as for B1
# B3: GpH7-A5/GpH7-B3 variant P271_20W/GpL16-k0 (antibody, human IgG1, kappa)
# heavy 1: not shown
# heavy 2: not shown
# light: B1 light
# notes: as for B1
# B4: GpH7-A5/GpH7-B3 variant Q295_02A/GpL16-k0 (antibody, human IgG1, kappa)
# heavy 1: not shown
# heavy 2: not shown
# light: B1 light
# notes: as for B1
# B5: GpH7-A5/GpH7-B3 variant Q295_03V/GpL16-k0 (antibody, human IgG1, kappa)
# heavy 1: not shown
# heavy 2: not shown
# light: B1 light
# notes: as for B1
# B6: GpH7-A5/GpH7-B3 variant Q295_04F/GpL16-k0 (antibody, human IgG1, kappa)
# heavy 1: not shown
# heavy 2: not shown
# light: B1 light
# notes: as for B1
# B7: GpH7-A5/GpH7-B3 variant Q295_05P/GpL16-k0 (antibody, human IgG1, kappa)
# heavy 1: not shown
# heavy 2: not shown
# light: B1 light
# notes: as for B1
# B8: GpH7-A5/GpH7-B3 variant Q295_07I/GpL16-k0 (antibody, human IgG1, kappa)
# heavy 1: not shown
# heavy 2: not shown
# light: B1 light
# notes: as for B1
# B9: GpH7-A5/GpH7-B3 variant Q295_13S/GpL16-k0 (antibody, human IgG1, kappa)
# heavy 1: not shown
# heavy 2: not shown
# light: B1 light
# notes: as for B1
# B10: GpH7-A5/GpH7-B3 variant Q295_14T/GpL16-k0 (antibody, human IgG1, kappa)
# heavy 1: not shown
# heavy 2: not shown
# light: B1 light
# notes: as for B1
# B11: GpH7-A5/GpH7-B3 variant Q295_18N/GpL16-k0 (antibody, human IgG1, kappa)
# heavy 1: not shown
# heavy 2: not shown
# light: B1 light
# notes: as for B1
# B12: GpH7-A5/GpH7-B3 variant S239_01G/GpL16-k0 (antibody, human IgG1, kappa)
# heavy 1: not shown
# heavy 2: not shown
# light: B1 light
# notes: as for B1
# B13: GpH7-A5/GpH7-B3 variant S239_09D/GpL16-k0 (antibody, human IgG1, kappa)
# heavy 1: not shown
# heavy 2: not shown
# light: B1 light
# notes: as for B1
# B14: GpH7-A5/GpH7-B3 variant S267_01G/GpL16-k0 (antibody, human IgG1, kappa)
# heavy 1: not shown
# heavy 2: not shown
# light: B1 light
# notes: as for B1
# B15: GpH7-A5/GpH7-B3 variant S267_02A/GpL16-k0 (antibody, human IgG1, kappa)
# heavy 1: not shown
# heavy 2: not shown
# light: B1 light
# notes: as for B1
# B16: GpH7-A5/GpH7-B3 variant S267_03V/GpL16-k0 (antibody, human IgG1, kappa)
# heavy 1: not shown
# heavy 2: not shown
# light: B1 light
# notes: as for B1
# B17: GpH7-A5/GpH7-B3 variant S267_09D/GpL16-k0 (antibody, human IgG1, kappa)
# heavy 1: not shown
# heavy 2: not shown
# light: B1 light
# notes: as for B1
# B18: GpH7-A5/GpH7-B3 variant S298_03V/GpL16-k0 (antibody, human IgG1, kappa)
# heavy 1: not shown
# heavy 2: not shown
# light: B1 light
# notes: as for B1
# B19: GpH7-A5/GpH7-B3 variant S298_07I/GpL16-k0 (antibody, human IgG1, kappa)
# heavy 1: not shown
# heavy 2: not shown
# light: B1 light
# notes: as for B1
# B20: GpH7-A5/GpH7-B3 variant S298_08L/GpL16-k0 (antibody, human IgG1, kappa)
# heavy 1: not shown
# heavy 2: not shown
# light: B1 light
# notes: as for B1
# B21: GpH7-A5/GpH7-B3 variant S298_10E/GpL16-k0 (antibody, human IgG1, kappa)
# heavy 1: not shown
# heavy 2: not shown
# light: B1 light
# notes: as for B1
# B22: GpH7-A5/GpH7-B3 variant S298_14T/GpL16-k0 (antibody, human IgG1, kappa)
# heavy 1: not shown
# heavy 2: not shown
# light: B1 light
# notes: as for B1
# B23: GpH7-A5/GpH7-B3 variant S298_15Y/GpL16-k0 (antibody, human IgG1, kappa)
# heavy 1: not shown
# heavy 2: not shown
# light: B1 light
# notes: as for B1
# Target: T1, FcγRIa (human, UniProt P12314 16-292)
# T1 construct: extracellular domain; soluble extracellular domain with C-terminal His tag, expressed in FreeStyle293 cells; also called FcgRI; FcgRIa
# Assay: SPR (Biacore), captured antibody, FcγRIa analyte; relative to HeCon Ab GpH7-A5/GpH7-B3/GpL16-k0 = 100
# T1 sequence (P12314 16-292): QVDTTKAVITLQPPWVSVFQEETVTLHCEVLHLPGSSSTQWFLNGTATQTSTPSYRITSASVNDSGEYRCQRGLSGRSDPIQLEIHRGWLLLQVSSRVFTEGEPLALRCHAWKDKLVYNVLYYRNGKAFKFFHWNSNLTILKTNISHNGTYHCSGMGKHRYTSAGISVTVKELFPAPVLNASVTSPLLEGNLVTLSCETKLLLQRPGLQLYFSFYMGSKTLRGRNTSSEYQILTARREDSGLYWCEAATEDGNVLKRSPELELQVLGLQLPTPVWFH
row,Binder,He/Con_1a
1,B1,102 % of control
2,B2,102 % of control
3,B3,103 % of control
4,B4,104 % of control
5,B5,104 % of control
6,B6,102 % of control
7,B7,103 % of control
8,B8,103 % of control
9,B9,102 % of control
10,B10,103 % of control
11,B11,102 % of control
12,B12,101 % of control
13,B13,101 % of control
14,B14,103 % of control
15,B15,109 % of control
16,B16,106 % of control
17,B17,110 % of control
18,B18,110 % of control
19,B19,107 % of control
20,B20,107 % of control
21,B21,108 % of control
22,B22,107 % of control
23,B23,107 % of control
